Starred links: 1 amine or outer side, 2 acyl side, 3 side chain; linkers in the order of their positions; H or OH if unused. Non-standard residues stand in square brackets, D forms with d. No end group written: not given here. *: point of attachment. Phe(4-Cl) = N[C@@H](Cc1ccc(Cl)cc1)C(=O)O; Adipoyl = O=C(CCCCC(=O)[*:2])[*:1]; Cha = N[C@@H](CC1CCCCC1)C(=O)O; pGlu = O=C1CC[C@@H](C(=O)O)N1; Morpholide = C1CN(*)CCO1; Nle = CCCC[C@H](N)C(=O)O; Dap = NC[C@H](N)C(=O)O; Hexanoyl = CCCCCC(=O)*
How the values were obtained:
[1] = biological target: APJ (orphan G protein-coupled receptor protein); assay: cell-based or functional assay
Sequence of APJ (orphan G protein-coupled receptor protein) (P35414 whole entry): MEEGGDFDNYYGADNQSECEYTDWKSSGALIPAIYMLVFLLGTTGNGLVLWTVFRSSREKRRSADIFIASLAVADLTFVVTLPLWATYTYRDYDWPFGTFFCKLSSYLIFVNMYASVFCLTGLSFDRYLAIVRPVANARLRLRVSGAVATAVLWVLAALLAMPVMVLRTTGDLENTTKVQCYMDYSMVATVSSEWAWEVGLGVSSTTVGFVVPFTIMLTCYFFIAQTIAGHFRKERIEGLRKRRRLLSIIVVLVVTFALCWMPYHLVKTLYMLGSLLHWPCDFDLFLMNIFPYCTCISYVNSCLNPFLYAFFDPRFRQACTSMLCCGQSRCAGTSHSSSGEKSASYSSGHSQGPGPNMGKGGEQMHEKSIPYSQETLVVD

[2] = biological target: APJ (orphan G protein-coupled receptor protein); assay: radioligand competition, compound of Ref. Ex. 2 as labelled ligand, CHO-A10 membrane fraction
[3] = biological target: APJ (orphan G protein-coupled receptor protein); assay: radioligand competition, 125I-labelled compound of Ref. Ex. 1 (100 pM), CHO-A10 membrane fraction

Row | Binder | EC50, inhibition of forskolin-stimulated cAMP production (CHO-A10 clone 6 cells) [1] | IC50 [2] | IC50 [3]
1 | RPRLSARGP[Cha]PF [Arg-Pro-Arg-Leu-Ser-Ala-Arg-Gly-Pro-Cha-Pro-Phe] | 0.59 nM | 0.084 nM | 2.2 nM
2 | RPRLFARGP[Cha]PX (not fully specified (residue 12); printed as Arg-Pro-Arg-Leu-Phe-Ala-Arg-Gly-Pro-Cha-Pro-Phe(Cl)) [Arg-Pro-Arg-Leu-Phe-Ala-Arg-Gly-Pro-Cha-Pro-Phe(Cl)] | 1.2 nM | 0.38 nM | 2.3 nM
3 | RPRLFHKGP[Cha]PX (not fully specified (residue 12); printed as Arg-Pro-Arg-Leu-Phe-His-Lys-Gly-Pro-Cha-Pro-Phe(Cl)) [Arg-Pro-Arg-Leu-Phe-His-Lys-Gly-Pro-Cha-Pro-Phe(Cl)] | 1 nM | 0.29 nM | 2.7 nM
4 | RRQRPRLSHKGP[Nle]PY [Arg-Arg-Gln-Arg-Pro-Arg-Leu-Ser-His-Lys-Gly-Pro-Nle-Pro-Tyr] | 0.28 nM | 0.027 nM | 2.7 nM
5 | RPRLFHKGP[Cha]PF [Arg-Pro-Arg-Leu-Phe-His-Lys-Gly-Pro-Cha-Pro-Phe] | 0.46 nM | 0.13 nM | 8 nM
6 | RRQRPRLSHKGP[Cha]PX (not fully specified (residue 15); printed as Arg-Arg-Gln-Arg-Pro-Arg-Leu-Ser-His-Lys-Gly-Pro-Cha-Pro-Phe(Cl)) [Arg-Arg-Gln-Arg-Pro-Arg-Leu-Ser-His-Lys-Gly-Pro-Cha-Pro-Phe(Cl)] | 0.53 nM | 0.33 nM | 0.47 nM
7 | RRQRPRLSHKGPX (oxidized C-terminal residue; peptide; Xaa means Met(O)) [Arg-Arg-Gln-Arg-Pro-Arg-Leu-Ser-His-Lys-Gly-Pro-Met(O)] | 0.48 nM | 0.62 nM | 
8 | RRXRPRLSHKGPMPF (N-terminal branched Arg-Arg-Lys(Arg-Arg); peptide derivative; Xaa means Lys(Arg-Arg)) [Arg-Arg-Lys(Arg-Arg)-Arg-Pro-Arg-Leu-Ser-His-Lys-Gly-Pro-Met-Pro-Phe] | 0.57 nM | 0.84 nM | 2.9 nM
9 | XRPRLSAKGPMPF (N-terminal pGlu; peptide derivative; Xaa means pGlu) [pGlu-Arg-Pro-Arg-Leu-Ser-Ala-Lys-Gly-Pro-Met-Pro-Phe] | 0.22 nM | 0.21 nM | 
10 | XRPRLSRKGPMPF (N-terminal pGlu; peptide derivative; Xaa means pGlu) [pGlu-Arg-Pro-Arg-Leu-Ser-Arg-Lys-Gly-Pro-Met-Pro-Phe] | 0.081 nM | 0.23 nM | 
11 | RPRLSHKGPMPX (C-terminal Nal(2); peptide derivative; Xaa means Nal(2)) [Arg-Pro-Arg-Leu-Ser-His-Lys-Gly-Pro-Met-Pro-Nal(2)] | 0.1 nM | 0.35 nM | 
12 | XRPRLSHRGPMPF (N-terminal pGlu; peptide derivative; Xaa means pGlu) [pGlu-Arg-Pro-Arg-Leu-Ser-His-Arg-Gly-Pro-Met-Pro-Phe] | 0.2 nM | 0.4 nM | 
13 | RPRLSHKGPMX (C-terminal Cha; peptide derivative; Xaa means Cha) [Arg-Pro-Arg-Leu-Ser-His-Lys-Gly-Pro-Met-Cha] | 0.22 nM | 0.51 nM | 
14 | RPRLFHKGP[Cha]X (not fully specified (residue 11); printed as Arg-Pro-Arg-Leu-Phe-His-Lys-Gly-Pro-Cha-Phe(Cl)) [Arg-Pro-Arg-Leu-Phe-His-Lys-Gly-Pro-Cha-Phe(Cl)] | 0.43 nM | 0.54 nM | 
15 | XRPRLSLKGPMPF (N-terminal pGlu; peptide derivative; Xaa means pGlu) [pGlu-Arg-Pro-Arg-Leu-Ser-Leu-Lys-Gly-Pro-Met-Pro-Phe] | 0.16 nM | 0.59 nM | 
16 | RPRLSARGP[Cha]X (not fully specified (residue 11); printed as Arg-Pro-Arg-Leu-Ser-Ala-Arg-Gly-Pro-Cha-Phe(Cl)) [Arg-Pro-Arg-Leu-Ser-Ala-Arg-Gly-Pro-Cha-Phe(Cl)] | 0.65 nM | 0.1 nM | 1 nM
17 | RPRLSHKGPMX (Nal(2) non-natural residue; peptide derivative; Xaa means Nal(2)) [Arg-Pro-Arg-Leu-Ser-His-Lys-Gly-Pro-Met-Nal(2)] | 0.37 nM | 0.61 nM | 
18 | [pGlu]RPRLSRRGPMPF [pGlu-Arg-Pro-Arg-Leu-Ser-Arg-Arg-Gly-Pro-Met-Pro-Phe] | 0.069 nM | 0.73 nM | 

Row | Binder | EC50, inhibition of forskolin-stimulated cAMP production (CHO-A10 clone 6 cells) [1] | IC50 [2] | IC50 [3]
19 | [pGlu]RPRLFRRGPMPF [pGlu-Arg-Pro-Arg-Leu-Phe-Arg-Arg-Gly-Pro-Met-Pro-Phe] | 0.15 nM | 0.81 nM | 
20 | XRPRLSFKGPMPF (N-terminal pGlu; peptide derivative; Xaa means pGlu) [pGlu-Arg-Pro-Arg-Leu-Ser-Phe-Lys-Gly-Pro-Met-Pro-Phe] | 0.24 nM | 0.95 nM | 
21 | XRPRLFHKGPMPF (N-terminal pGlu; peptide derivative; Xaa means pGlu) [pGlu-Arg-Pro-Arg-Leu-Phe-His-Lys-Gly-Pro-Met-Pro-Phe] | 0.22 nM | 0.99 nM | 
22 | XRPRLSHKGPMX (N-terminal pGlu; C-terminal Cha; peptide derivative; Xaa on the 1st position means pGlu; Xaa on the 12th position means Cha) [pGlu-Arg-Pro-Arg-Leu-Ser-His-Lys-Gly-Pro-Met-Cha] | 0.3 nM | 1.3 nM | 
23 | XRPRLSHKGPMX (N-terminal pGlu; C-terminal Nal(2); peptide derivative; Xaa on the 1st position means pGlu; Xaa on the 12th position means Nal(2)) [pGlu-Arg-Pro-Arg-Leu-Ser-His-Lys-Gly-Pro-Met-Nal(2)] | 0.52 nM | 1.4 nM | 
24 | XRPRLSHFGPMPF (N-terminal pGlu; peptide derivative; Xaa means pGlu) [pGlu-Arg-Pro-Arg-Leu-Ser-His-Phe-Gly-Pro-Met-Pro-Phe] | 0.3 nM | 2.6 nM | 
25 | RPRLSHKGPMPX (C-terminal Cha; peptide derivative; Xaa means Cha) [Arg-Pro-Arg-Leu-Ser-His-Lys-Gly-Pro-Met-Pro-Cha] | 0.71 nM | 3.5 nM | 
26 | RPRLSARGP[Cha]PX (not fully specified (residue 12); printed as Arg-Pro-Arg-Leu-Ser-Ala-Arg-Gly-Pro-Cha-Pro-Phe(Cl)) [Arg-Pro-Arg-Leu-Ser-Ala-Arg-Gly-Pro-Cha-Pro-Phe(Cl)] | 0.51 nM | 0.13 nM | 1.2 nM
27 | XRPRLSHLGPMPF (N-terminal pGlu; peptide derivative; Xaa means pGlu) [pGlu-Arg-Pro-Arg-Leu-Ser-His-Leu-Gly-Pro-Met-Pro-Phe] | 0.16 nM | 3.6 nM | 
28 | RRQRPRLSARG-NMe2 [Arg-Arg-Gln-Arg-Pro-Arg-Leu-Ser-Ala-Arg-Gly-NMe2] | 0.49 nM | 0.16 nM | 
29 | RRQRPRLSARG-Morpholide [Arg-Arg-Gln-Arg-Pro-Arg-Leu-Ser-Ala-Arg-Gly-Mor] | 1.2 nM | 0.26 nM | 
30 | RPRLSHAGP[Cha]PX (not fully specified (residue 12); printed as Arg-Pro-Arg-Leu-Ser-His-Ala-Gly-Pro-Cha-Pro-Phe(Cl)) [Arg-Pro-Arg-Leu-Ser-His-Ala-Gly-Pro-Cha-Pro-Phe(Cl)] | 0.58 nM | 0.22 nM | 0.58 nM
31 | RPRASHKGP[Cha]PX (not fully specified (residue 12); printed as Arg-Pro-Arg-Ala-Ser-His-Lys-Gly-Pro-Cha-Pro-Phe(Cl)) [Arg-Pro-Arg-Ala-Ser-His-Lys-Gly-Pro-Cha-Pro-Phe(Cl)] | 0.52 nM | 0.17 nM | 0.52 nM
32 | RPALSHKGP[Cha]PX (not fully specified (residue 12); printed as Arg-Pro-Ala-Leu-Ser-His-Lys-Gly-Pro-Cha-Pro-Phe(Cl)) [Arg-Pro-Ala-Leu-Ser-His-Lys-Gly-Pro-Cha-Pro-Phe(Cl)] | 0.41 nM | 0.15 nM | 0.41 nM
33 | RRQRPRLSARGPX (C-terminal Cha; peptide derivative; Xaa means Cha.) [Arg-Arg-Gln-Arg-Pro-Arg-Leu-Ser-Ala-Arg-Gly-Pro-Cha] | 0.55 nM | 0.046 nM | 1.4 nM
34 | RPRLS[Dap](Hexanoyl)RGP[Cha]P[Phe(4-Cl)] [Arg-Pro-Arg-Leu-Ser-Dap(C6)-Arg-Gly-Pro-Cha-Pro-Phe(Cl)] | 1.1 nM | 0.45 nM | 1.1 nM
35 | RPRLS[Dap](Adipoyl)RGP[Cha]P[Phe(4-Cl)] [Arg-Pro-Arg-Leu-Ser-Dap(Adi)-Arg-Gly-Pro-Cha-Pro-Phe(Cl)] | 0.42 nM | 0.13 nM | 0.42 nM
36 | XRPRLSHKGPXPF (N-terminal pGlu; Cha non-natural residue; peptide derivative; Xaa on the 1st position means pGlu.; Xaa on the 11th position means Cha.) [pGlu-Arg-Pro-Arg-Leu-Ser-His-Lys-Gly-Pro-Cha-Pro-Phe] | 0.35 nM | 0.16 nM | 13 nM
